Assay results taken from patent US6346611.

Molecular target: human transforming growth factor β2 (TGFβ2) (human) (UniProt P61812)
Experiment: cell-based or functional assay

human transforming growth factor β2 (TGFβ2) (human), sequence (P61812 303-414 limits assumed): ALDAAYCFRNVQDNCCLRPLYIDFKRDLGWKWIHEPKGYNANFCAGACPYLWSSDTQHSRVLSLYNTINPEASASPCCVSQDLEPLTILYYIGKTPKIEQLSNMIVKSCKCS

## latency-associated protein (LAP)
  Ki, reversal of TGFβ2-mediated inhibition of 3H-thymidine incorporation in mink lung epithelial cells: 0.5 nM
